Measured values: US20200199241A1 (Chugai, published 2020)

Target: T1, human FcRn (soluble human FcRn complexed with β2-microglobulin) (human, UniProt P61769 21-119, limits assumed)
T1 construct: also called hFcRn
Test: SPR, pH 7.0;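 also: antibodies captured on a Protein L sensor chip with human FcRn injected as analyte, KD calculated from fitted association and dissociation rate constants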

Kd	Binder
120 nM	IgG1-F551 (antibody, EU numbering; copies: 2 + 2) heavy: QVQLQESGPGLVKPSETLSLTCAVSGHSISHDHAWSWVRQPPGEGLEWIGFISYSGITNYNPSLQGRVTISRDNSKNTLYLQMNSLRAEDTAVYYCARSLARTTAMDYWGEGTLVTVSSASTKGPSVFPLAPSSKSTSGGTAALGCLVKDYFPEPVTVSWNSGALTSGVHTFPAVLQSSGLYSLSSVVTVPSSSLGTQTYICNVNHKPSNTKVDKKVEPKSCDKTHTCPPCPAPELLGGPSVFLFPPKPKDWLMISRTVEVTCVVVDVSHEDPEVKFNWYVDGVEVHNAKTKPREEQYNSTYRVVSVLQVLHQDWLNGKEYKCKVSNKALPAPIEKTISKAKGQPREPQVYTLPPSRDELTKNQVSLTCLVKGFYPSDIAVEWESNGQPENNYKTTPPVLDSDGSFFLYSKLTVDKSRWQQGNVFSCSVLHEALHYHYTQKSLSLSP light: not shown
130 nM	IgG1-F563 (antibody, EU numbering; copies: 2 + 2) heavy: QVQLQESGPGLVKPSETLSLTCAVSGHSISHDHAWSWVRQPPGEGLEWIGFISYSGITNYNPSLQGRVTISRDNSKNTLYLQMNSLRAEDTAVYYCARSLARTTAMDYWGEGTLVTVSSASTKGPSVFPLAPSSKSTSGGTAALGCLVKDYFPEPVTVSWNSGALTSGVHTFPAVLQSSGLYSLSSVVTVPSSSLGTQTYICNVNHKPSNTKVDKKVEPKSCDKTHTCPPCPAPELLGGPSVFLFPPKPKDTLYITRTPEVTCVVVDVSHEDPEVKFNWYVDGVEVHNAKTKPREEQYNSTYRVVSVLTVLHADWLNGKEYKCKVSNKALPAPIEKTISKAKGQPREPQVYTLPPSRDELTKNQVSLTCLVKGFYPSDIAVEWESNGQPENNYKTTPPVLDSDGSFFLYSKLTVDKSRWQQGNVFSCSVMHEALHYHYTQKSLSLSP light: not shown
170 nM	IgG1-F553 (antibody, EU numbering; copies: 2 + 2) heavy: QVQLQESGPGLVKPSETLSLTCAVSGHSISHDHAWSWVRQPPGEGLEWIGFISYSGITNYNPSLQGRVTISRDNSKNTLYLQMNSLRAEDTAVYYCARSLARTTAMDYWGEGTLVTVSSASTKGPSVFPLAPSSKSTSGGTAALGCLVKDYFPEPVTVSWNSGALTSGVHTFPAVLQSSGLYSLSSVVTVPSSSLGTQTYICNVNHKPSNTKVDKKVEPKSCDKTHTCPPCPAPELLGGPSVFLFPPKPKDTLYISRTPEVTCVVVDVSHEDPEVKFNWYVDGVEVHNAKTKPREEQYNSTYRVVSVLTVLHADWLNGKEYKCKVSNKALPAPIEKTISKAKGQPREPQVYTLPPSRDELTKNQVSLTCLVKGFYPSDIAVEWESNGQPENNYKTTPPVLDSDGSFFLYSKLTVDKSRWQQGNVFSCSVMHEALHYHYTQKSLSLSP light: not shown
83 nM	IgG1-F562 (antibody, EU numbering; copies: 2 + 2) heavy: QVQLQESGPGLVKPSETLSLTCAVSGHSISHDHAWSWVRQPPGEGLEWIGFISYSGITNYNPSLQGRVTISRDNSKNTLYLQMNSLRAEDTAVYYCARSLARTTAMDYWGEGTLVTVSSASTKGPSVFPLAPSSKSTSGGTAALGCLVKDYFPEPVTVSWNSGALTSGVHTFPAVLQSSGLYSLSSVVTVPSSSLGTQTYICNVNHKPSNTKVDKKVEPKSCDKTHTCPPCPAPELLGGPSVFLFPPKPKDTLYITRTPEVTCVVVDVSHEDPEVKFNWYVDGVEVHNAKTKPREEQYNSTYRVVSVLQVLHQDWLNGKEYKCKVSNKALPAPIEKTISKAKGQPREPQVYTLPPSRDELTKNQVSLTCLVKGFYPSDIAVEWESNGQPENNYKTTPPVLDSDGSFFLYSKLTVDKSRWQQGNVFSCSVMHEALHYHYTQKSLSLSP light: not shown
80 nM	IgG1-F559 (antibody, EU numbering; copies: 2 + 2) heavy: QVQLQESGPGLVKPSETLSLTCAVSGHSISHDHAWSWVRQPPGEGLEWIGFISYSGITNYNPSLQGRVTISRDNSKNTLYLQMNSLRAEDTAVYYCARSLARTTAMDYWGEGTLVTVSSASTKGPSVFPLAPSSKSTSGGTAALGCLVKDYFPEPVTVSWNSGALTSGVHTFPAVLQSSGLYSLSSVVTVPSSSLGTQTYICNVNHKPSNTKVDKKVEPKSCDKTHTCPPCPAPELLGGPSVFLFPPKPKDTLYITRTPEVTCVVVDVSHEDPEVKFNWYVDGVEVHEAKTKPREEQYNSTYRVVSVLTVLHQDWLNGKEYKCKVSNKALPAPIEKTISKAKGQPREPQVYTLPPSRDELTKNQVSLTCLVKGFYPSDIAVEWESNGQPENNYKTTPPVLDSDGSFFLYSKLTVDKSRWQQGNVFSCSVMHEALHYHYTQKSLSLSP light: not shown
110 nM	IgG1-F552 (antibody, EU numbering; 'N428L' as printed, probably M428L; copies: 2 + 2) heavy: QVQLQESGPGLVKPSETLSLTCAVSGHSISHDHAWSWVRQPPGEGLEWIGFISYSGITNYNPSLQGRVTISRDNSKNTLYLQMNSLRAEDTAVYYCARSLARTTAMDYWGEGTLVTVSSASTKGPSVFPLAPSSKSTSGGTAALGCLVKDYFPEPVTVSWNSGALTSGVHTFPAVLQSSGLYSLSSVVTVPSSSLGTQTYICNVNHKPSNTKVDKKVEPKSCDKTHTCPPCPAPELLGGPSVFLFPPKPKDYLMISRTVEVTCVVVDVSHEDPEVKFNWYVDGVEVHNAKTKPREEQYNSTYRVVSVLQVLHQDWLNGKEYKCKVSNKALPAPIEKTISKAKGQPREPQVYTLPPSRDELTKNQVSLTCLVKGFYPSDIAVEWESNGQPENNYKTTPPVLDSDGSFFLYSKLTVDKSRWQQGNVFSCSVLHEALHYHYTQKSLSLSP light: not shown
28 nM	IgG1-F560 (antibody, EU numbering; copies: 2 + 2) heavy: QVQLQESGPGLVKPSETLSLTCAVSGHSISHDHAWSWVRQPPGEGLEWIGFISYSGITNYNPSLQGRVTISRDNSKNTLYLQMNSLRAEDTAVYYCARSLARTTAMDYWGEGTLVTVSSASTKGPSVFPLAPSSKSTSGGTAALGCLVKDYFPEPVTVSWNSGALTSGVHTFPAVLQSSGLYSLSSVVTVPSSSLGTQTYICNVNHKPSNTKVDKKVEPKSCDKTHTCPPCPAPELLGGPSVFLFPPKPKDTLYITRTPEVTCVVVDVSHEDPEVKFNWYVDGVEVHNAKTKPREEQYNSTYRVVSVLTPLHQDWLNGKEYKCKVSNKALPAPIEKTISKAKGQPREPQVYTLPPSRDELTKNQVSLTCLVKGFYPSDIAVEWESNGQPENNYKTTPPVLDSDGSFFLYSKLTVDKSRWQQGNVFSCSVMHEALHYHYTQKSLSLSP light: not shown
190 nM	IgG1-F564 (antibody, EU numbering; copies: 2 + 2) heavy: QVQLQESGPGLVKPSETLSLTCAVSGHSISHDHAWSWVRQPPGEGLEWIGFISYSGITNYNPSLQGRVTISRDNSKNTLYLQMNSLRAEDTAVYYCARSLARTTAMDYWGEGTLVTVSSASTKGPSVFPLAPSSKSTSGGTAALGCLVKDYFPEPVTVSWNSGALTSGVHTFPAVLQSSGLYSLSSVVTVPSSSLGTQTYICNVNHKPSNTKVDKKVEPKSCDKTHTCPPCPAPELLGGPSVFLFPPKPKDTLYITRTPEVTCVVVDVSHEDPEVKFNWYVDGVEVHNAKTKPREEQYNSTYRVVSVLTVLHHDWLNGKEYKCKVSNKALPAPIEKTISKAKGQPREPQVYTLPPSRDELTKNQVSLTCLVKGFYPSDIAVEWESNGQPENNYKTTPPVLDSDGSFFLYSKLTVDKSRWQQGNVFSCSVMHEALHYHYTQKSLSLSP light: not shown
1500 nM	IgG1-F556 (antibody, EU numbering; copies: 2 + 2) heavy: QVQLQESGPGLVKPSETLSLTCAVSGHSISHDHAWSWVRQPPGEGLEWIGFISYSGITNYNPSLQGRVTISRDNSKNTLYLQMNSLRAEDTAVYYCARSLARTTAMDYWGEGTLVTVSSASTKGPSVFPLAPSSKSTSGGTAALGCLVKDYFPEPVTVSWNSGALTSGVHTFPAVLQSSGLYSLSSVVTVPSSSLGTQTYICNVNHKPSNTKVDKKVEPKSCDKTHTCPPCPAPELLGGPSVFLFPPKPKDTLYISRTPEVTCVVVDVSHEDPEVKFNWYVDGVEVHNAKTKPREEQYNSTYRVVSVLQVLHADWLNGKEYKCKVSNKALPAPIEKTISKAKGQPREPQVYTLPPSRDELTKNQVSLTCLVKGFYPSDIAVEWESNGQPENNYKTTPPVLDSDGSFFLYSKLTVDKSRWQQGNVFSCSVMHEALHNHYTQKSLSLSP light: not shown
140 nM	IgG1-F561 (antibody, EU numbering; copies: 2 + 2) heavy: QVQLQESGPGLVKPSETLSLTCAVSGHSISHDHAWSWVRQPPGEGLEWIGFISYSGITNYNPSLQGRVTISRDNSKNTLYLQMNSLRAEDTAVYYCARSLARTTAMDYWGEGTLVTVSSASTKGPSVFPLAPSSKSTSGGTAALGCLVKDYFPEPVTVSWNSGALTSGVHTFPAVLQSSGLYSLSSVVTVPSSSLGTQTYICNVNHKPSNTKVDKKVEPKSCDKTHTCPPCPAPELLGGPSVFLFPPKPKDTLYITRTPEVTCVVVDVSHEDPEVKFNWYVDGVEVHNAKTKPREEQYNSTYRVVSVLAVLHQDWLNGKEYKCKVSNKALPAPIEKTISKAKGQPREPQVYTLPPSRDELTKNQVSLTCLVKGFYPSDIAVEWESNGQPENNYKTTPPVLDSDGSFFLYSKLTVDKSRWQQGNVFSCSVMHEALHYHYTQKSLSLSP light: not shown
61 nM	IgG1-F566 (antibody, EU numbering; copies: 2 + 2) heavy: QVQLQESGPGLVKPSETLSLTCAVSGHSISHDHAWSWVRQPPGEGLEWIGFISYSGITNYNPSLQGRVTISRDNSKNTLYLQMNSLRAEDTAVYYCARSLARTTAMDYWGEGTLVTVSSASTKGPSVFPLAPSSKSTSGGTAALGCLVKDYFPEPVTVSWNSGALTSGVHTFPAVLQSSGLYSLSSVVTVPSSSLGTQTYICNVNHKPSNTKVDKKVEPKSCDKTHTCPPCPAPELLGGPSVFLFPPKPKDTLYITRTPEVTCVVVDVSHEDPEVKFNWYVDGVEVHNAKTKPREEQYNSTYRVVSVLQVLHADWLNGKEYKCKVSNKALPAPIEKTISKAKGQPREPQVYTLPPSRDELTKNQVSLTCLVKGFYPSDIAVEWESNGQPENNYKTTPPVLDSDGSFFLYSKLTVDKSRWQQGNVFSCSVMHEALHYHYTQKSLSLSP light: not shown
220 nM	IgG1-F567 (antibody, EU numbering; copies: 2 + 2) heavy: QVQLQESGPGLVKPSETLSLTCAVSGHSISHDHAWSWVRQPPGEGLEWIGFISYSGITNYNPSLQGRVTISRDNSKNTLYLQMNSLRAEDTAVYYCARSLARTTAMDYWGEGTLVTVSSASTKGPSVFPLAPSSKSTSGGTAALGCLVKDYFPEPVTVSWNSGALTSGVHTFPAVLQSSGLYSLSSVVTVPSSSLGTQTYICNVNHKPSNTKVDKKVEPKSCDKTHTCPPCPAPELLGGPSVFLFPPKPKDTLYITRTPEVTCVVVDVSHEDPEVKFNWYVDGVEVHNAKTKPREEQYNSTYRVVSVLTVLHQDWLNGKEYKCKVSNKALPAPIEKTISKAKGQPREPQVYTLPPSRDELTKNQVSLTCLVKGFYPSDIAVEWESNGQPENNYKTTPPVLDSDGSFFLYSKLTVDKSRWQQGNVFSCSVIHEALHYHYTQKSLSLSP light: not shown
92 nM	IgG1-F565 (antibody, EU numbering; copies: 2 + 2) heavy: QVQLQESGPGLVKPSETLSLTCAVSGHSISHDHAWSWVRQPPGEGLEWIGFISYSGITNYNPSLQGRVTISRDNSKNTLYLQMNSLRAEDTAVYYCARSLARTTAMDYWGEGTLVTVSSASTKGPSVFPLAPSSKSTSGGTAALGCLVKDYFPEPVTVSWNSGALTSGVHTFPAVLQSSGLYSLSSVVTVPSSSLGTQTYICNVNHKPSNTKVDKKVEPKSCDKTHTCPPCPAPELLGGPSVFLFPPKPKDTLYITRTPEVTCVVVDVSHEDPEVKFNWYVDGVEVHNAKTKPREEQYNSTYRVVSVLAVLHADWLNGKEYKCKVSNKALPAPIEKTISKAKGQPREPQVYTLPPSRDELTKNQVSLTCLVKGFYPSDIAVEWESNGQPENNYKTTPPVLDSDGSFFLYSKLTVDKSRWQQGNVFSCSVMHEALHYHYTQKSLSLSP light: not shown
